T1: His-tagged p62/p58 MUC1 protein (UniProt P15941 1036-1155, limits assumed)
T1 construct: domain: p62/p58; Soluble staining reagent for the CAR on T cells, detected with an anti-His secondary antibody; not shown: His tag
T1 sequence (looked up): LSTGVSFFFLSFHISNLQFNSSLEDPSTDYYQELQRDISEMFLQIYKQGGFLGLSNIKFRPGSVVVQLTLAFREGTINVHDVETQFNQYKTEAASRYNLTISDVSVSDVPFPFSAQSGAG


What was measured:
[1] = molecular target: T1, His-tagged p62/p58 MUC1 protein; experiment: flow cytometry of CAR-T cells (anti-CD3/CD28 bead re-activated, 48 hours) stained with His-tagged p62/p58 MUC1 protein and anti-His secondary antibody
Text: (§1) MUC1-C candidate CARs were subcloned into a tricistronic piggyBac transposon (EF1alpha promoter-iC9 Safety Switch-T2A-MUC1-C CAR-T2A-DHFR selection gene) and CAR-T cells were produced using pan T cells from a normal human blood donor as described herein (FIG. 6). Expression of each candidate CAR on the surface of piggyBac-modified cells was confirmed by FACS staining 19 days post-transposon delivery using an His-tagged p62/p58 MUC1 protein, followed by anti-His secondary antibody (FIG. 6). Specifically, cells were examined by flow cytometry for surface-expression of CAR on either mock transposed (blue) or anti-CD3/CD28 bead re-activated (red) cells (activation for 48 hours) that received transposon encoding CAR and data are shown as overlaid histograms; numbers represent percentage of cells expressing CAR on cell surface. All candidate MUC1-C CARs were expressed and detected on the surface of piggyBac-produced CAR-T cells (FIG. 7).

[2] = molecular target: T1, His-tagged p62/p58 MUC1 protein; experiment: flow cytometry of CAR-T cells stained with His-tagged p62/p58 MUC1 protein and anti-His secondary antibody, day 19
Text: as §1

[3] = molecular target: MUC1 on MDA-MB-468.lucGFP cells (UniProt P15941 24-1255); experiment: cell-based or functional assay
Chain of MUC1 on MDA-MB-468.lucGFP cells (P15941 24-1255): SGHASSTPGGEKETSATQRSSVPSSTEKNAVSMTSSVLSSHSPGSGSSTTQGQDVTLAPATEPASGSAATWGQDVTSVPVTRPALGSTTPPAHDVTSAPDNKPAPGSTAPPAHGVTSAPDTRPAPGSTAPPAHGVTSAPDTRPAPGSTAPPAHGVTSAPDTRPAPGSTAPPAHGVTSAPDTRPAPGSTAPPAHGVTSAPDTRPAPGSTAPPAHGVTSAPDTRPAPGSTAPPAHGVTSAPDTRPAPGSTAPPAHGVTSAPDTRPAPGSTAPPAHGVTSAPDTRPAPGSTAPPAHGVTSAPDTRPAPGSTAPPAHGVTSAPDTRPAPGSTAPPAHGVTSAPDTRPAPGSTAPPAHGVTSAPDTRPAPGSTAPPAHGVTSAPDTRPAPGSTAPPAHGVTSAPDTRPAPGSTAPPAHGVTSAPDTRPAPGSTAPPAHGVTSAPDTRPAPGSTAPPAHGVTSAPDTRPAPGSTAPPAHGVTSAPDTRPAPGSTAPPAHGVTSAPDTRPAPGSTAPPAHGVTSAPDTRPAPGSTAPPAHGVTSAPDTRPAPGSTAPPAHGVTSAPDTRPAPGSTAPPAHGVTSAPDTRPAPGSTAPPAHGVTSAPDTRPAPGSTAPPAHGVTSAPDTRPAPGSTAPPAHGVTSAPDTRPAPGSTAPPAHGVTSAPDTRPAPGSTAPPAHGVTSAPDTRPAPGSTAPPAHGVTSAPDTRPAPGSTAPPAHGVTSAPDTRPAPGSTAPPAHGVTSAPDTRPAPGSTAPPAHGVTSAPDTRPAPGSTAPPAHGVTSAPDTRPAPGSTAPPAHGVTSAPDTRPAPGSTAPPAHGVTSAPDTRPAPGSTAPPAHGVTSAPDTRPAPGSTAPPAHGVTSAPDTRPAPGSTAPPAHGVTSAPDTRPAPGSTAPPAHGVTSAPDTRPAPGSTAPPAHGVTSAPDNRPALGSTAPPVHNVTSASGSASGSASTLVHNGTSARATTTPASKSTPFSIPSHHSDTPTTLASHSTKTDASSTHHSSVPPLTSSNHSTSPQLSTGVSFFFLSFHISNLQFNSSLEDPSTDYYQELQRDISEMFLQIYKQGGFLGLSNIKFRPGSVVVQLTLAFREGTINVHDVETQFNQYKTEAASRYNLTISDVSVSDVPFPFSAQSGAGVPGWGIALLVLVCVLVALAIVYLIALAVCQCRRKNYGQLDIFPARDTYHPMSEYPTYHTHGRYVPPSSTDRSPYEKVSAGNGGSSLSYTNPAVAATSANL

Row | MFI (activated cells) [1] | MFI (non-activated cells) [2] | Binder | Target cell killing area under the curve (AUC) [3]
1 | 3830 MFI | 717 MFI | "L2H2" CAR (humanized MUC1-C scFv chimeric antigen receptor) (other) EILLTQSPDFQSVTPKEKVTFTCRASQSIGTSIHWYQQKPNQSPKLLIKYASESISGVPSRFSGSGSGTDFTLTINSVESEDIADYYCQQSNNWPLTFGQGTKLEIKGGGGSGGGGSGGGGSQVQLVQSGAEVKKPGSSVKISCKTSGYAFSNFWMNWVRQAPGQGLEWIGQIYPGDGDTNYNGKFKGRVTLTADKSTSTAYMELSSLRSEATAVYFCARSYYRSAWFAYWGQGTLVTVSSTTTPAPRPPTPAPTIASQPLSLRPEACRPAAGGAVHTRGLDFACDIYIWAPLAGTCGVLLLSLVITLYCKRGRKKLLYIFKQPFMRPVQTTQEEDGCSCRFPEEEEGGCELRVKFSRSADAPAYKQGQNQLYNELNLGRREEYDVLDKRRGRDPEMGGKPRRKNPQEGLYNELQKDKMAEAYSEIGMKGERRRGKGHDGLYQGLSTATKDTYDALHMQALPPR | 482
2 | 3320 MFI | 743 MFI | "L1H3" CAR (humanized MUC1-C scFv chimeric antigen receptor) (other) EILLTQSPDFQSVTPKEKVTFTCRASQSIGTSIHWYQQKPNQSPKLLIKYASESISGVPSRFSGSGSGTDFTLTINSLESEDIATYYCQQSNNWPLTFGQGTKLEIKGGGGSGGGGSGGGGSQVQLVQSGAEVKKPGSSVKISCKTSGYAFSNFWMNWVKQRPGQGLEWIGQIYPGDGDTNYNGKFKGRATLTADKSTSTAYMELSSLRSEATAVYFCARSYYRSAWFAYWGQGTLVTVSSTTTPAPRPPTPAPTIASQPLSLRPEACRPAAGGAVHTRGLDFACDIYIWAPLAGTCGVLLLSLVITLYCKRGRKKLLYIFKQPFMRPVQTTQEEDGCSCRFPEEEEGGCELRVKFSRSADAPAYKQGQNQLYNELNLGRREEYDVLDKRRGRDPEMGGKPRRKNPQEGLYNELQKDKMAEAYSEIGMKGERRRGKGHDGLYQGLSTATKDTYDALHMQALPPR | 490
3 | 3620 MFI | 726 MFI | "L3H2" CAR (humanized MUC1-C scFv chimeric antigen receptor) (other, also called 13H2) EILLTQSPDFQSVTPKEKVTFTCRASQSIGTSIHWYQQKPNQSPKLLIKYASESISGVPSRFSGSGSGTDFTLSINSVESEDIADYYCQQSNNWPLTFGQGTKLEIKGGGGSGGGGSGGGGSQVQLVQSGAEVKKPGSSVKISCKTSGYAFSNFWMNWVRQAPGQGLEWIGQIYPGDGDTNYNGKFKGRVTLTADKSTSTAYMELSSLRSEATAVYFCARSYYRSAWFAYWGQGTLVTVSSTTTPAPRPPTPAPTIASQPLSLRPEACRPAAGGAVHTRGLDFACDIYIWAPLAGTCGVLLLSLVITLYCKRGRKKLLYIFKQPFMRPVQTTQEEDGCSCRFPEEEEGGCELRVKFSRSADAPAYKQGQNQLYNELNLGRREEYDVLDKRRGRDPEMGGKPRRKNPQEGLYNELQKDKMAEAYSEIGMKGERRRGKGHDGLYQGLSTATKDTYDALHMQALPPR | 503
4 | 2990 MFI | 714 MFI | "L1H2B" CAR (humanized MUC1-C scFv chimeric antigen receptor) (other) EILLTQSPDFQSVTPKEKVTFTCRASQSIGTSIHWYQQKPNQSPKLLIKYASESISGVPSRFSGSGSGTDFTLTINSLESEDIATYYCQQSNNWPLTFGQGTKLEIKGGGGSGGGGSGGGGSQVQLVQSGAEVKKPGSSVKISCKTSGYAFSNFWMNWVRQAPGQGLEWIGQIYPGDGDTNYNAKFKGRVTLTADKSTSTAYMELSSLRSEATAVYFCARSYYRSAWFAYWGQGTLVTVSSTTTPAPRPPTPAPTIASQPLSLRPEACRPAAGGAVHTRGLDFACDIYIWAPLAGTCGVLLLSLVITLYCKRGRKKLLYIFKQPFMRPVQTTQEEDGCSCRFPEEEEGGCELRVKFSRSADAPAYKQGQNQLYNELNLGRREEYDVLDKRRGRDPEMGGKPRRKNPQEGLYNELQKDKMAEAYSEIGMKGERRRGKGHDGLYQGLSTATKDTYDALHMQALPPR | 528
5 | 3020 MFI | 729 MFI | "L2H4" CAR (humanized MUC1-C scFv chimeric antigen receptor) (other) EILLTQSPDFQSVTPKEKVTFTCRASQSIGTSIHWYQQKPNQSPKLLIKYASESISGVPSRFSGSGSGTDFTLTINSVESEDIADYYCQQSNNWPLTFGQGTKLEIKGGGGSGGGGSGGGGSQVQLVQSGAEVKKPGSSVKISCKTSGYAFSNFWMNWVKQRPGQGLEWIGQIYPGDGDTNYNGKFKGRATLTADKSSSTAYMELSSLRSEATAVYFCARSYYRSAWFAYWGQGTLVTVSSTTTPAPRPPTPAPTIASQPLSLRPEACRPAAGGAVHTRGLDFACDIYIWAPLAGTCGVLLLSLVITLYCKRGRKKLLYIFKQPFMRPVQTTQEEDGCSCRFPEEEEGGCELRVKFSRSADAPAYKQGQNQLYNELNLGRREEYDVLDKRRGRDPEMGGKPRRKNPQEGLYNELQKDKMAEAYSEIGMKGERRRGKGHDGLYQGLSTATKDTYDALHMQALPPR | 518
6 | 2580 MFI | 696 MFI | "L3H3" CAR (humanized MUC1-C scFv chimeric antigen receptor) (other) EILLTQSPDFQSVTPKEKVTFTCRASQSIGTSIHWYQQKPNQSPKLLIKYASESISGVPSRFSGSGSGTDFTLSINSVESEDIADYYCQQSNNWPLTFGQGTKLEIKGGGGSGGGGSGGGGSQVQLVQSGAEVKKPGSSVKISCKTSGYAFSNFWMNWVKQRPGQGLEWIGQIYPGDGDTNYNGKFKGRATLTADKSTSTAYMELSSLRSEATAVYFCARSYYRSAWFAYWGQGTLVTVSSTTTPAPRPPTPAPTIASQPLSLRPEACRPAAGGAVHTRGLDFACDIYIWAPLAGTCGVLLLSLVITLYCKRGRKKLLYIFKQPFMRPVQTTQEEDGCSCRFPEEEEGGCELRVKFSRSADAPAYKQGQNQLYNELNLGRREEYDVLDKRRGRDPEMGGKPRRKNPQEGLYNELQKDKMAEAYSEIGMKGERRRGKGHDGLYQGLSTATKDTYDALHMQALPPR | 518
7 | 2510 MFI | 737 MFI | "L1H4" CAR (humanized MUC1-C scFv chimeric antigen receptor) (other) EILLTQSPDFQSVTPKEKVTFTCRASQSIGTSIHWYQQKPNQSPKLLIKYASESISGVPSRFSGSGSGTDFTLTINSLESEDIATYYCQQSNNWPLTFGQGTKLEIKGGGGSGGGGSGGGGSQVQLVQSGAEVKKPGSSVKISCKTSGYAFSNFWMNWVKQRPGQGLEWIGQIYPGDGDTNYNGKFKGRATLTADKSSSTAYMELSSLRSEATAVYFCARSYYRSAWFAYWGQGTLVTVSSTTTPAPRPPTPAPTIASQPLSLRPEACRPAAGGAVHTRGLDFACDIYIWAPLAGTCGVLLLSLVITLYCKRGRKKLLYIFKQPFMRPVQTTQEEDGCSCRFPEEEEGGCELRVKFSRSADAPAYKQGQNQLYNELNLGRREEYDVLDKRRGRDPEMGGKPRRKNPQEGLYNELQKDKMAEAYSEIGMKGERRRGKGHDGLYQGLSTATKDTYDALHMQALPPR | 498
8 | 3030 MFI | 720 MFI | "L1H2" CAR (humanized MUC1-C scFv chimeric antigen receptor) (other) EILLTQSPDFQSVTPKEKVTFTCRASQSIGTSIHWYQQKPNQSPKLLIKYASESISGVPSRFSGSGSGTDFTLTINSLESEDIATYYCQQSNNWPLTFGQGTKLEIKGGGGSGGGGSGGGGSQVQLVQSGAEVKKPGSSVKISCKTSGYAFSNFWMNWVRQAPGQGLEWIGQIYPGDGDTNYNGKFKGRVTLTADKSTSTAYMELSSLRSEATAVYFCARSYYRSAWFAYWGQGTLVTVSSTTTPAPRPPTPAPTIASQPLSLRPEACRPAAGGAVHTRGLDFACDIYIWAPLAGTCGVLLLSLVITLYCKRGRKKLLYIFKQPFMRPVQTTQEEDGCSCRFPEEEEGGCELRVKFSRSADAPAYKQGQNQLYNELNLGRREEYDVLDKRRGRDPEMGGKPRRKNPQEGLYNELQKDKMAEAYSEIGMKGERRRGKGHDGLYQGLSTATKDTYDALHMQALPPR | 466
9 | 2880 MFI | 770 MFI | "L2H3" CAR (humanized MUC1-C scFv chimeric antigen receptor) (other) EILLTQSPDFQSVTPKEKVTFTCRASQSIGTSIHWYQQKPNQSPKLLIKYASESISGVPSRFSGSGSGTDFTLTINSVESEDIADYYCQQSNNWPLTFGQGTKLEIKGGGGSGGGGSGGGGSQVQLVQSGAEVKKPGSSVKISCKTSGYAFSNFWMNWVKQRPGQGLEWIGQIYPGDGDTNYNGKFKGRATLTADKSTSTAYMELSSLRSEATAVYFCARSYYRSAWFAYWGQGTLVTVSSTTTPAPRPPTPAPTIASQPLSLRPEACRPAAGGAVHTRGLDFACDIYIWAPLAGTCGVLLLSLVITLYCKRGRKKLLYIFKQPFMRPVQTTQEEDGCSCRFPEEEEGGCELRVKFSRSADAPAYKQGQNQLYNELNLGRREEYDVLDKRRGRDPEMGGKPRRKNPQEGLYNELQKDKMAEAYSEIGMKGERRRGKGHDGLYQGLSTATKDTYDALHMQALPPR | 542
10 | 1960 MFI | 695 MFI | "L3H4" CAR (humanized MUC1-C scFv chimeric antigen receptor) (other, also called 13H4) EILLTQSPDFQSVTPKEKVTFTCRASQSIGTSIHWYQQKPNQSPKLLIKYASESISGVPSRFSGSGSGTDFTLSINSVESEDIADYYCQQSNNWPLTFGQGTKLEIKGGGGSGGGGSGGGGSQVQLVQSGAEVKKPGSSVKISCKTSGYAFSNFWMNWVKQRPGQGLEWIGQIYPGDGDTNYNGKFKGRATLTADKSSSTAYMELSSLRSEATAVYFCARSYYRSAWFAYWGQGTLVTVSSTTTPAPRPPTPAPTIASQPLSLRPEACRPAAGGAVHTRGLDFACDIYIWAPLAGTCGVLLLSLVITLYCKRGRKKLLYIFKQPFMRPVQTTQEEDGCSCRFPEEEEGGCELRVKFSRSADAPAYKQGQNQLYNELNLGRREEYDVLDKRRGRDPEMGGKPRRKNPQEGLYNELQKDKMAEAYSEIGMKGERRRGKGHDGLYQGLSTATKDTYDALHMQALPPR | 501

Reference: patent publication US20230079955A1 (POSEIDA THERAPEUTICS, published 2023)
